Data on one substance can be found in patent US20230074735.

The target in the data set is Taq DNA polymerase (Thermus aquaticus) (UniProt P19821). The data set can be described thus: inhibition. Conditions: contains RNA cleavage site; about half amplicon yield; activity increased to some degree with 10 uM Pb2+; mechanism unclear, possibly stem recognition by polymerase.
Chain of Taq DNA polymerase (Thermus aquaticus) (P19821 whole entry): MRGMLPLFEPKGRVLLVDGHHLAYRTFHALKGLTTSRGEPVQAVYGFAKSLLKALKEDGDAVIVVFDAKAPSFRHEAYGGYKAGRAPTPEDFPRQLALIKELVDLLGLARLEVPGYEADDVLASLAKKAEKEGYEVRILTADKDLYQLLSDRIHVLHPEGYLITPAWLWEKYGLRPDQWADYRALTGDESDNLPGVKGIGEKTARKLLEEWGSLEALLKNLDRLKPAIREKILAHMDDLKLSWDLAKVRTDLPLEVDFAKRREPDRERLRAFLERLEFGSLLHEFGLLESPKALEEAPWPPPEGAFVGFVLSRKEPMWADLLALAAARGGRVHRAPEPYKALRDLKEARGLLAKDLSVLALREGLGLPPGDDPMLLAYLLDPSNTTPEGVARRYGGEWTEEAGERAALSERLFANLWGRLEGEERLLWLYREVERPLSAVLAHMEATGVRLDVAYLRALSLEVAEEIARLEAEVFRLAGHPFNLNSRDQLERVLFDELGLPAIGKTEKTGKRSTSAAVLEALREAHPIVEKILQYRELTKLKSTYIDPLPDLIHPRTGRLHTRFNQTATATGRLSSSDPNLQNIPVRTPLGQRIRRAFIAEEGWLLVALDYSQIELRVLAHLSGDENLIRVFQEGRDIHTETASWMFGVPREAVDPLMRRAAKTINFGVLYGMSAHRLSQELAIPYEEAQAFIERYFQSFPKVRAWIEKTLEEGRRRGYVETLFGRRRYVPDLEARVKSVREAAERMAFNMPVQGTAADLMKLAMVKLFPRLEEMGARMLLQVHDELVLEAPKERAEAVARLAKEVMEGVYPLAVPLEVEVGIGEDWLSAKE

As for GR5 DNAzyme (71 nt), the activity (% amplicon vs polymerase only) is 50.
